Experimental data reported in patent US20160137740A1 (AstraZeneca / MedImmune, published 2016).

How the values were obtained:
Human OX40 [1] = biological target: T1, Human OX40 (human, UniProt P43489 29-277); experiment: cell-based or functional assay
T1 sequence: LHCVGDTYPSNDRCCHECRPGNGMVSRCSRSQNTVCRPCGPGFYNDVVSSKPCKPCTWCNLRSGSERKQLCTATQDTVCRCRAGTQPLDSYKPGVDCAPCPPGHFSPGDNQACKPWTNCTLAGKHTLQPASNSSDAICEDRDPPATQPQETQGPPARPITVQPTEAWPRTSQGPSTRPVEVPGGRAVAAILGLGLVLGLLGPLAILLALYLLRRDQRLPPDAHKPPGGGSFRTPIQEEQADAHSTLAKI

Human OX40 [2] = biological target: T1, Human OX40; experiment: cell-based or functional assay; remark: listed apart in the source
Human OX40 [3] = biological target: T1, Human OX40; experiment: cell-based or functional assay; remark: listed apart in the source
Human OX40 [4] = biological target: T1, Human OX40; experiment: cell-based or functional assay; remark: listed apart in the source
[5] = biological target: cyno/rhesus OX40 expressed on Jurkat NFκB-luciferase reporter clone B2 (cynomolgus/rhesus monkey); experiment: cell-based or functional assay
[6] = biological target: T2, KO_CRD3 (human OX40 aa 108 to 146 replaced with the mouse counterparts) (human; mouse, UniProt P43489 29-277); experiment: flow cytometry, transfected 293F cells, column KO_CRD3
T2 construct: Chimeric variant with a transmembrane domain, transient on 293F cells
T2 chain: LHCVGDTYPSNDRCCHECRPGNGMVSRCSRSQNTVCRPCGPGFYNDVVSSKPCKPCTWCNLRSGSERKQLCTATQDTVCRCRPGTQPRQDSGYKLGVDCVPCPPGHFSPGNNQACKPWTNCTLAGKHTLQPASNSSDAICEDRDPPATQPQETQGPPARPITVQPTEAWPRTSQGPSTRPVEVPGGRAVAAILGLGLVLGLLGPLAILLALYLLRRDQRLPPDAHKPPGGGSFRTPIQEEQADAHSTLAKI

Human OX40 [7] = biological target: T1, Human OX40; experiment: flow cytometry on activated primary human CD4+ T cells; 50% receptor occupancy calculated from Kd
Procedure: (§1) OX40mAb24 (10 μg/mL) or 9B12 (10 μg/mL) was diluted over a 17 point 2-fold dilution series. OX40mAb24 was added to 100,000 cells (activated primary CD4⁺ T cells or human OX40-overexpressing Jurkat NFkB-luciferase clone 64 cells) per well and incubated for one hour at 4° C. For background binding subtraction, cells were incubated in the presence of secondary antibody alone. […] Following secondary antibody incubation, cells were washed and suspended in 100 μL FACS buffer for flow cytometry analysis on a BD LSRII flow cytometer as described below.

[8] = biological target: T3, Recombinant human TNFRSF6 (FAS) (human, UniProt P25445 26-173); experiment: ELISA, plate coated with a dilution series of the recombinant TNFRSF protein [panel B]
T3 construct: Plate-adsorbed antigen of the ELISA
T3 sequence (looked up): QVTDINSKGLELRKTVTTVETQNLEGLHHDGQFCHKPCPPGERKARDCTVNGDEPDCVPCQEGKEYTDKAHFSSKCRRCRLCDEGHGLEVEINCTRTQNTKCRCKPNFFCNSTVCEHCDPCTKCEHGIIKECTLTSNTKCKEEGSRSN
Procedure: An eight point, two-fold dilution series of each recombinant human TNFRSF protein was prepared after dilution of stock proteins to 5 μg/mL in PBS. Subsequently, 50 μL of each antigen dilution was transferred in duplicate to wells of a Nunc 96-well MaxiSorp flat bottom plate, and incubated overnight at 4° C. to adsorb proteins to the plate. Afterwards, plates were washed three times with PBS in a BioTek® plate washer to remove unbound protein. Anti OX40 mAb29, 9B12, and control antibodies were diluted in PBS to a final concentration of 10 μg/mL, and 50 μL of mAb were added to each well and incubated at room temperature for one hour to bind mAb to plate-bound protein. Thereafter, wells were washed with PBS/Tween-20 0.1% (volume/volume) using a BioTek® plate washer. HRP conjugated goat anti-human or goat anti-mouse secondary antibodies at 10 μg/mL was added to each well and incubated at room temperature for 1 hour. After three washes in PBS/Tween-20 0.1%, 50 μL of TMB substrate was added to each well and incubated at room temperature for 5 minutes to develop the colorimetric product. Reactions were stopped by adding 50 μL of 0.5 molar H₂SO₄ to wells, and plates read immediately at 450 nm using an Envision C plate reader for detection of the colorimetric product.

Human OX40 [9] = biological target: T1, Human OX40; experiment: flow cytometry on human OX40-overexpressing Jurkat clone 64 cells; 50% receptor occupancy calculated from Kd
Procedure: (§2) Human OX40-overexpressing Jurkat NFκB-luciferase clone 64 cells were cultured in complete RPMI+10% FBS prior to binding experiments, without the need for activation.
as §1

Cynomolgus monkey OX40 = biological target: T4, Cynomolgus monkey OX40 (cynomolgus monkey); experiment: flow cytometry, equilibrium binding to activated primary cynomolgus CD4+ T cells; mean of 2 experiments (StdErr)
T4 construct: also called cyno OX40
Procedure: Cyno CD4⁺ T cell isolation was performed with a Miltenyi non-human primate kit according to manufacturer's instructions, then CD4⁺ T cells counted on a ViCell counter and suspended at 1×10⁶ per mL in complete medium as described above.
Cyno CD4⁺ T cells (1×10⁶ per mL in complete medium) were incubated for 48 hours in a T75 cell culture flask with 2 μg/mL PHA-L and 20 IU/mL IL-2, to activate T cells and induce OX40 expression. Activated CD4⁺ T cells were removed from the flask and 100,000 cells were transferred to each well of a non-tissue culture treated 96-well round-bottom plate for binding assays and washed with 200 μL FACS buffer. Binding was performed with 10 μg/mL OX40mAb24 or 9B12 serially diluted 4-fold in FACS buffer for an 11-point data curve, or both R347 human IgG1 or mouse IgG1 clone MOPC-21 (negative controls) serially diluted 6-fold for a 3 point data curve. OX40mAb24, 9B12 or control protein was added to CD4⁺ T cells and incubated. […] Following secondary antibody incubation, cells were processed for flow cytometry as described in Section 2.3.

Human OX40 [10] = biological target: T1, Human OX40; experiment: flow cytometry, equilibrium binding to human OX40-overexpressing Jurkat NFkB-luciferase clone 64 cells; mean of 3 experiments (StdErr)
Procedure: as §2, §1

B1: 9B12 (antibody, mouse IgG1, V domains shown)
VH: EVQLQESGPSLVKPSQTLSLTCSVTGDSFTSGYWNWIRKFPGNRLEYMGYISYNGITYHNPSLKSRISITRDTSKNHYYLQLNSVTTEDTATYFCARYRYDYDGGHAMDYWGQGTLVTVSS
VL: DIQMTQTTSSLSASLGDRVTISCRASQDISNYLNWYQQKPDGTVKLLIYYTSKLHSGVPSRFSGSGSRTDYSLTITDLDQEDIATYFCQQGSALPWTFGQGTKVEIKR
notes: mouse IgG1 kappa; also called murine mAb 9B12; mouse anti-human OX40 IgG1κ monoclonal antibody
In the case of B1, the “EC50, IL10 release, donor 367” value (Human OX40 [1]) is reported as 0.198 nM, the “EC50, IL10 release, donor 645” value (Human OX40 [1]) is reported as 1.22 nM and the “EC50, IL10 release, donor 651” value (Human OX40 [1]) is reported as 0.796 nM. For the same binder, the “EC50, IL13 release, donor 645” value (Human OX40 [2]) was 5.45 nM, the “EC50, IL13 release, donor 651” value (Human OX40 [2]) was 1.77 nM and the “EC50, IL13 release, donor 661” value (Human OX40 [2]) was 0.238 nM. For the same binder, the “EC50, IL5 release, donor 651” value (Human OX40 [3]) was 1.09 nM, the “mean EC50, NFκB-luciferase 2-cell assay, human Raji B cells + human OX40 Jurkat clone 64” value (Human OX40 [4]) was 4.68 nM and the “EC50, NFκB-luciferase 2-cell assay, rhesus RBC-lysed whole blood + cyno/rhesus OX40 Jurkat clone B2” value [5] was 6.05 nM. For the same binder, the binding result [6] was “no binding”, the EC50 (Human OX40 [7]) was 0.669 nM and the binding result [8] was “no binding”. It also gave an EC50 (Human OX40 [9]) of 0.726 nM, a Kd (Cynomolgus monkey OX40) of 1.09 nM and a Kd (Human OX40 [10]) of 0.726 nM.
